Reference: the supplement of paper PMC12042874
± gives the uncertainty stated by the source.

experiment: amyloid nucleation score (Sup35N fusion, yeast selection) (log enrichment); library NNK1; higher = more nucleation; inactive = no reads after selection
Procedure, shortened: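 The nucleation score, computed with DiMSum, is the log enrichment of output over input reads, centred on the mode score of non-aggregating sequences. Sequences with under 100 input reads were dropped. Reads were generated by Illumina sequencing of plasmid inserts from psi-negative yeast with Sup35N fused to peptides of 20 random codons, induced with 100 μM copper sulfate for 24 hours and grown 7 days at 30°C on medium lacking adenine and uracil.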

Substance | amyloid nucleation score
RRMTDLFV | -0.354 ± 0.3
RRPNETS | -1.08 ± 2.4
RRRSLLLVWRMTVGWVWGWD | -0.215 ± 0.62
RRTIYASLRLY | 0.066 ± 0.29
RRVLRTSKNSSLMDFYATIE | 0.299 ± 0.79
RRYEFKRLGSMSDGVTLRSM | -0.759 ± 0.5
RRYVICNYCLYSRV | 1.12 ± 0.33
RSCITESRRHIWRTGMVEKW | 0.716 ± 0.48
RSFEGKRFNVGWLFASATFM | 0.157 ± 0.46
RSFSECLMSGHTIFQFGMYM | 4.26 ± 0.14
RSFTVCEFMFLFRLWDNSAY | 0.11 ± 0.9
RSGGTSSTALQQQLRFNRTR | 0.581 ± 0.33
RSLPNPL | -0.29 ± 0.42
RSSILMVVVANHSIIVTRGV | 3.04 ± 0.13
RSSKGIPLMENPLVYTMASR | 0.005 ± 1.7
RSSMPRSWAVWPRWE | 0.176 ± 0.71
RSSWKVLKRFRVVRERHEIT | 0.257 ± 1.1
RSSWQMSPNMLLTNLNCCSS | 6.367 ± 0.047
RSTSF | inactive
RSVPCPYYGLL | 0.033 ± 0.66
RSVSLC | 0.907 ± 0.61
RSVSLNRSTRRRR | 1.1 ± 0.41
RSVYFIYTWIWQVSAVIFLC | 0.107 ± 0.2
RTFGYGHHIAGGCRDYRVYR | -0.373 ± 0.62
RTFTGRDGCVKDVCTPHFEM | 0.632 ± 0.9

Substance | amyloid nucleation score
RTICKVIFVSEVKSLFWNMS | 1.87 ± 0.41
RTINMQLVTLYLTSRVVDNF | 1.1 ± 0.47
RTLFIRSLVYFVLSSFIFAV | -0.004 ± 0.36
RTLGFLRCFIITSVDSTKNA | 0.514 ± 0.8
RTLLSFNRDVSFEGQPPGWL | 0.352 ± 1
RTLMRLN | -0.762 ± 0.41
RTLPSG | -0.12 ± 0.19
RTPFNVDPKPTDPRNTRCST | 0.822 ± 0.93
RTRSGRVICNGFPRYSTTAA | inactive
RTSPSYGIPNWAELLRVE | -0.311 ± 0.69
RTVQSGHSSARCKIIGPYHD | -0.077 ± 1.7
RVAPKGNRARDHVDSSSECS | 2.14 ± 0.18
RVCCWHFTFVTVCCKLLSMT | 1.93 ± 0.23
RVGEKSVEWPAFLRYLMKWF | -0.008 ± 0.5
RVGNNLNFM | -0.915 ± 0.3
RVGSFMVNPSSCMSYAFWLR | 0.443 ± 0.49
RVHSIDENVWMVQGQNSRAG | 3.73 ± 0.16
RVLDLKWPCYMGSVNLASRR | 0.016 ± 0.74
RVLRQMKSIC | -0.44 ± 0.83
RVNTCMSRGRA | -0.367 ± 0.61
RVNYIHD | -0.057 ± 0.46
RVRLTFCCLMAVRSRSMISK | 0.436 ± 1.2
RVRSSMCGALWARKFYRTHI | -0.116 ± 0.49
RVVRSATADITACMSLNIYR | 0.879 ± 0.56
RVWYCRGMCRP | -0.239 ± 0.93

Substance | amyloid nucleation score
RVYMFLARFGRESGWSVRQW | 0.169 ± 1
RWCLVSGMILCSLLCVYSFN | -1.62 ± 2.4
RWCVVSEKTFCINYTRLSFA | 0.888 ± 0.23
RWIFSSWLLDGILGERCQTV | -0.484 ± 1.1
RWMELMALSRKTPGRQKARC | -0.745 ± 1.5
RWRKVGIKEGLIMLESGVSR | -0.921 ± 2.4
RYCVHIWRCDSLNHHN | 0.349 ± 0.41
RYDTNMFFSCCT | 5.591 ± 0.054
RYEMSVHGV | 0.391 ± 0.66
RYFCAIWLGCGERRSRVSKW | 1.38 ± 0.34
RYFNGYITGNLNSASNARSS | 1.81 ± 0.18
RYMSHGIGGTPV | 0.142 ± 0.69
RYVSLDRPYTSNNNRYAKGV | 0.475 ± 0.22
SACNLPACRSNKLAGRGRVM | 0.408 ± 0.42
SADLCLMWSGTNC | inactive
SADQIYHKGQWHSWTNSTNQ | 0.35 ± 0.29
SAGAYGVRGRGSTLMVVFEW | -0.066 ± 0.54
SAGYYPVVLCALILEAEYQD | -0.541 ± 0.61
SAHHLVIRFGMLYPREQHCL | 0.299 ± 0.43
SAPFMNGLCTLSRVREISAH | 0.222 ± 0.59
SARYTLKPQPWVHHLLK | 0.523 ± 0.9
SATIKYHYFLTFFNVDRFCR | 2.07 ± 0.46
SCETVWYVFNSAIACFTFRR | 4.18 ± 0.15
SCFTTF | -1.54 ± 1.2
SCGSVFF | -0.758 ± 2.1

Substance | amyloid nucleation score
SCGTYFLFICHKSLYWHVHI | -0.594 ± 0.9
SCKDSCTEYSGAIYVLVWVK | 0.604 ± 0.56
SCLIFVSHSTEGYYSTPTFP | 2.26 ± 0.26
SCLPGPKRFL | 0.496 ± 1.2
SCLSRASIYSRFHSNLYVKM | inactive
SCLVWLFRCFFRTYQYYEFI | 0.253 ± 0.24
SCSELGMLERLDMGLTLEVL | -0.105 ± 0.36
SCVLRLNMAYIIVVVNSLEC | inactive
SCWPCQ | -1.09 ± 2.4
SCWVDSDHLNCFIYFTFVNT | -1.27 ± 2.7
SCYGEFEPFRESRMGRSNLA | 0.538 ± 0.75
SDASLLTKSVFADGRDQVTR | 0.433 ± 0.28
SDCVVVGHGVVRIYMDGVWP | 5.84 ± 0.065
SDERKGPGYPSMITSWQGGS | -1.31 ± 2.4
SDGMFSYNVRFAQRSWMYRT | -0.14 ± 0.55
SDRSLVGRNAGM | -0.468 ± 0.65
SDSRVVLPLLIPLSART | 0.865 ± 0.42
SDVLGMSQAIGASTSVAEVV | inactive
SDVYRGVVIVGHMIAKHMLV | 0.494 ± 0.55
SEAMGMDNSQWSFALFMASM | 0.184 ± 0.48
SEGKHNCKLT | -0.635 ± 0.95
SEIPKSYPNFDYVSFINNSL | -0.24 ± 0.39
SELEYPTMGVSVVRLCSSSG | 0.1 ± 0.48
SELGVSSVRLERAFILGSWT | -1.63 ± 1
SEMPIFYLWDPQSGQRSWDG | 0.036 ± 0.93

Substance | amyloid nucleation score
SESLWDRGTVPKRPCAASLQ | inactive
SFCSFEF | 0.858 ± 0.88
SFDYRENCPINTVIWLRLCK | 3.93 ± 0.098
SFFMYLNIRWIWSMCVNAIE | 0.09 ± 0.58
SFGNVILSGIIRTTVLDRGV | -0.381 ± 0.74
SFHWQKGSSSYTVSPHSAKL | 0.239 ± 0.26
SFMQFDIRFT | 1.4 ± 0.27
SFNNFEFILVIDYKRKSYMR | -0.222 ± 0.36
SFNVAMCRCDVYL | 7.027 ± 0.047
SFRCGSNNSIHD | -2.02 ± 1.7
SFSCSVVLNRILMGIIYTCG | -0.836 ± 0.55
SFSMFSEFSLLRCSAYRNPM | 2.26 ± 0.063
SFTWRQNQVGNA | 1.24 ± 0.4
SFVFLRNL | 0.142 ± 0.32
SFWYYGDEKNVTVNLGFNES | -0.233 ± 0.79
SGGDFQCTRHMSVDLGLPVS | 0.428 ± 0.64
SGGIQCTGGRISVSCAVGKN | -0.224 ± 0.94
SGGNLFRVMRWSMHFVSVRL | -0.355 ± 0.33
SGHNLWRRGQKWSL | -0.455 ± 0.58
SGINLLFVFS | 2.95 ± 0.25
SGKPYLLGCTFSSVTLCPQV | -0.227 ± 0.38
SGKVVNPCMNDSDLVLNRIW | -0.011 ± 0.23
SGLLS | -1.12 ± 0.65
SGQPMIPGTCDNWNWRDYFT | 6.04 ± 0.09
SGSALYLCAISLRVSTEEKP | -0.178 ± 0.85

Substance | amyloid nucleation score
SGSINENVKYSDTLVWLWKM | 4.92 ± 0.055
SGTFLTFPYFIFCNVMICMS | 6.969 ± 0.049
SHEFLSSVYQSVLIVSNF | -0.508 ± 0.58
SHERLNQCSNFSSWQNRGGL | -0.588 ± 0.73
SHFGNPLKIPVFNRWTQHKA | -0.263 ± 0.49
SHFLF | 0.93 ± 0.7
SHLCLAMVVRGV | 0.507 ± 0.56
SHLGVMLNIRYNKSPQTTAP | 2.1 ± 0.41
SHLTRDSILRVRVCWTNCVQ | -0.026 ± 0.59
SHPRTYPWDSTDFVWLS | -0.549 ± 1.2
SHQVVGGLLTYSVWCKCLGC | 3.92 ± 0.059
SHRWWIM | -0.597 ± 1.1
SHSFPGMWTDDTSALASREK | 0.306 ± 0.59
SHSGFTCTCWCMALLYGVAS | 1.22 ± 0.63
SHSLHLESSASSLTR | -1 ± 0.51
SHTRQ | -0.223 ± 0.91
SHYSSIVYGAMEDSGL | -1.6 ± 2.4
SIFIAGWGCISYKRRVACFR | inactive
SIFSSSEVGVQLYTMGG | 0.91 ± 0.62
SIFVG | 0.353 ± 1.2
SIHVVYNPTFQMNCYTFRLS | 7.888 ± 0.05
SILETLGLAFVK | -0.41 ± 0.57
SILGRWDHDLWNLFGARSLV | -0.148 ± 0.89
SILQFALLMNSRDLVHRGYF | 3.38 ± 0.17
SIMLADYPIHLVSNTPRMVL | 0.809 ± 0.82

Substance | amyloid nucleation score
SINLCGLWKVYYILAFMW | -2.26 ± 2.4
SIPIVL | 0.267 ± 0.35
SIRLHS | 2.65 ± 0.31
SITMGQS | -0.546 ± 0.46
SIVETAVVSKYVERSYGQEG | -0.437 ± 0.36
SIVGWCICLREFSVRFSYAE | 5.48 ± 0.075
SIWCGRYIIMESVGTPLRSR | 0.438 ± 0.8
SIWVIRPAAGKSEGSISNVQ | 0.531 ± 0.5
SKDCNKWVRPRHGLYRFGGF | 0.071 ± 0.34
SKFNAIMNCDVIKRSLNCIN | 0.022 ± 0.3
SKLLHMEWNQELDPSLSLLS | -1.14 ± 0.66
SKLMRVVCVVISVAYTWNEE | 0.188 ± 0.32
SKSGLGYTGHLLVREREVVV | 0.474 ± 1
SKSLKYICMYFQHTNSLASI | 0.241 ± 1.2
SKSYVM | 0.468 ± 0.29
SKVVGGESKVQ | 1.05 ± 0.6
SLDLFSIKATRSDWSGFLRT | -0.613 ± 0.94
SLEWLESCFSDAHIHTAH | -0.733 ± 1.9
SLFATGN | inactive
SLFKRILYHVSGFRYCCTSV | -1.01 ± 1
SLFQYWDVRDVESTFSVCNC | 6.339 ± 0.047
